# Patent publication US20060194720A1 (SANWA KAGAKU KENKYUSHO, published 2006)
# Where no end group is shown, it is not given here.
# Molecular target: human GLP-1 receptor (human, UniProt P43220 24-463)
# Assay: cell-based or functional assay
Binder,"Cyclic AMP-producing activity, relative to naturally occurring GLP-1 (=100%), at 1 × 10^-10 M [%]","Cyclic AMP-producing activity, relative to naturally occurring GLP-1 (=100%), at 1 × 10^-11 M [%]","Cyclic AMP-producing activity, relative to naturally occurring GLP-1 (=100%), at × 10^-9 M [%]"
HSEGTFTSDVSSYLEGQAAKEFIAWLVKGKKKR-NH2 [[Ser^8]-GLP-1 (7-35)-Lys-Lys-Lys-Arg-NH2],96.6,45,86.7
HSEGTFTSDVSSYLEGQAAKEFIAWLVKGRRRRR-NH2 [[Ser^8]-GLP-1 (7-35)-Arg-Arg-Arg-Arg-Arg-NH2],64.7,34,106
HSEGTFTSDVSSYLEGQAAKEFIAWLVKGKKKKKKKR-NH2 [[Ser^8]-GLP-1 (7-35)-Lys-Lys-Lys-Lys-Lys-Lys-Lys-Arg-NH2],55.6,8.8,92.6
HSEGTFTSDVSSYLEGQAAKEFIAWLVKGKKKKKKKKKKR-NH2 [[Ser^8]-GLP-1 (7-35)-Lys-Lys-Lys-Lys-Lys-Lys-Lys-Lys-Lys-Lys-Arg-NH2],20.8,7.5,55.4
HSEGTFTSDVSSYLEGQAAKEFIAWLVKGKR-NH2 [[Ser^8]-GLP-1 (7-35)-Lys-Arg-NH2],113,100,80.5
HSEGTFTSDVSSYLEGQAAKEFIAWLVKGRRRR-NH2 [[Ser^8]-GLP-1 (7-35)-Arg-Arg-Arg-Arg-NH2],75.6,-17,102
HSEGTFTSDVSSYLEGQAAKEFIAWLVKGRRR-NH2 [[Ser^8]-GLP-1 (7-35)-Arg-Arg-Arg-NH2],95.5,56.4,91.2
HSEGTFTSDVSSYLEGQAAKEFIAWLVKGRRRRRRRRR-NH2 [[Ser^8]-GLP-1 (7-35)-Arg-Arg-Arg-Arg-Arg-Arg-Arg-Arg-Arg-NH2],87.4,74.5,95.9
HSEGTFTSDVSSYLEGQAAKEFIAWLVKGRRRRRRR-NH2 [[Ser^8]-GLP-1 (7-35)-Arg-Arg-Arg-Arg-Arg-Arg-Arg-NH2],81.1,64.9,80.6
HSEGTFTSDVSSYLEGQAAKEFIAWLVKGKKKKKR-NH2 [[Ser^8]-GLP-1 (7-35)-Lys-Lys-Lys-Lys-Lys-Arg-NH2],55.3,7.9,63.4
HSEGTFTSDVSSYLEGQAAKEFIAWLVKGRKK-NH2 [[Ser^8]-GLP-1 (7-35)-Arg-Lys-Lys-NH2],104,53.2,88.8
HSEGTFTSDVSSYLEGQAAKEFIAWLVKGR-NH2 [[Ser^8]-GLP-1 (7-35)-Arg-NH2],111,97.9,83.6
HSEGTFTSDVSSYLEGQAAKEFIAWLVKGRRRRRR-NH2 [[Ser^8]-GLP-1 (7-35)-Arg-Arg-Arg-Arg-Arg-Arg-NH2],48.6,54.3,75.6
HSEGTFTSDVSSYLEGQAAKEFIAWLVKGKKR-NH2 [[Ser^8]-GLP-1 (7-35)-Lys-Lys-Arg-NH2],88.9,36.2,81.6
